Target: the molecule itself
Experiment: cryo-EM structure

B1: MBP-Vpu full length (HIV-1 Vpu fused to maltose binding protein) (natural protein)
chain: MQPIPIVAIVALVVAIIIAIVVWSIVIIEYRKILRQRKIDRLIDRLIERAEDSGNESEGEISALVEMGVEMGHHAPWDVDDL
stoichiometry N: 6
